Values of other authors, collected in patent US20060182683A1, “Methods for reduced renal uptake of protein conjugates” (Center for Molecular Medicine and Immunology, priority 1995, published 2006).

How the values were obtained:
Xenopus oocytes = conditions: microinjected into Xenopus oocytes; read-out: IC50, inhibition of protein synthesis; cited from earlier work
[1] = tested on: patients suffering from a variety of relapsing and resistant tumors; conditions: intravenous; mainly due to renal toxicity; cited from earlier work
[2] = target: T1, mammalian placental ribonuclease inhibitor (Homo sapiens, UniProt P13489); conditions: cited from earlier work
T1 sequence (P13489 1-461): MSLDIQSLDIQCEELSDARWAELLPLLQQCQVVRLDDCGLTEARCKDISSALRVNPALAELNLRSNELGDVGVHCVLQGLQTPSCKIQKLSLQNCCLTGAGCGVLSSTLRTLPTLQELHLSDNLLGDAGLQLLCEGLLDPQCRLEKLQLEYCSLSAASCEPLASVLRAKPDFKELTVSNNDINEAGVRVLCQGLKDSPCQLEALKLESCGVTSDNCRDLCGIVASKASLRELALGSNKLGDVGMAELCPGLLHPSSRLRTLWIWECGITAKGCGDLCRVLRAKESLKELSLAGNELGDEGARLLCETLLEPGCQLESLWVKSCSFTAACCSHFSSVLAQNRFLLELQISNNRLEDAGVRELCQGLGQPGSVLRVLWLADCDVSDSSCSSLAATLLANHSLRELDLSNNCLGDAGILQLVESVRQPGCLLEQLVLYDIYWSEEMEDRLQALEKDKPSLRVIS

rats = conditions: dose range 0.01-0.02 mg/kg; cited from earlier work
dogs = conditions: 0.005-0.15 mg/kg; cited from earlier work
[3] = tested on: M109 Madison lung carcinoma; conditions: cited from earlier work
[4] = tested on: protein synthesis in a rabbit reticulocyte lysate; conditions: read-out: IC50, inhibition of protein synthesis; cited from earlier work

B1: ranpirnase (protein, UniProt P22069 1-104, looked up)
Protein P-30: QDWLTFQKKHITNTRDVDCDNIMSTNLFHCKDKNTFIYSRPEPVKAICKGIIASKNVLTTSEFYLSDCNVTSRPCKYKLKKSTNKFCVTCENQAPVHFVGVGSC
notes: non-mammalian ribonuclease (RNAse), molecular weight 12,000, purified from Rana pipiens oocytes and early embryos
Xenopus oocytes
  IC50: 0.1 nM
[1]
  maximum tolerated dose: 960 μg/m^2
[2]
  inhibition by mammalian placental ribonuclease inhibitor: not inhibited
rats
  toxicity: predictable, dose-dependent and reversible toxicity
dogs
  toxicity: predictable, dose-dependent and reversible toxicity
[3]; daily and weekly schedules, intraperitoneal
  survival: significantly prolonged survival
[3]; weekly schedule
  animals surviving long-term, apparently cured: six of eighteen
[4]
  IC50: 0.01 nM
